± gives the standard deviation of the averaged measurements.
How the values were obtained:
[1] = system: MCF7; assay: percentage of EdU-negative (G0-arrested) nuclei per well, 72 h; higher = more G0 arrest; conditions: reference: sequence is the full UniProt precursor, the tested protein was the secreted form or ectodomain
[2] = system: hTERT-HMEC; assay: as above; conditions: reference: sequence is the full UniProt precursor, the tested protein was the secreted form or ectodomain
[3] = protein concentration 0.0225 µM
[4] = protein concentration 0.03125 µM
[5] = protein concentration 0.3125 µM
[6] = protein concentration 0.0283425 µM
[7] = protein concentration 0.283425 µM
[8] = protein concentration 0.01375 µM
[9] = protein concentration 0.1375 µM
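Note: secreted proteins added to cultured cells, EdU pulse at the end, nuclei found by Hoechst imaging, EdU status from nuclear versus surrounding ring intensity ratio, PBS as neutral control.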

Sequence: MSDSKEPRVQQLGLLEEDPTTSGIRLFPRDFQFQQIHGHKSSTGCLGHGALVLQLLSFMLLAGVLVAILVQVSKVPSSLSQEQSEQDAIYQNLTQLKAAVGELSEKSKLQEIYQELTQLKAAVGELPEKSKLQEIYQELTRLKAAVGELPEKSKLQEIYQELTRLKAAVGELPEKSKLQEIYQELTRLKAAVGELPEKSKLQEIYQELTELKAAVGELPEKSKLQEIYQELTQLKAAVGELPDQSKQQQIYQELTDLKTAFERLCRHCPKDWTFFQGNCYFMSNSQRNWHDSVTACQEVRAQLVVIKTAEEQNFLQLQTSRSNRFSWMGLSDLNQEGTWQWVDGSPLSPSFQRYWNSGEPNNSGNEDCAEFSGSGWNDNRCDVDNYWICKKPAACFRDE [Q9H2X3]
- percentage of EdU-negative [1, 3]: 27 ± 3.5%
- percentage of EdU-negative ([1]; protein concentration 0.225 µM): 23.8 ± 2.6%
- percentage of EdU-negative [2, 3]: 5.68 ± 0.32%
- percentage of EdU-negative ([2]; protein concentration 0.225 µM): 6.17 ± 0.82%

Sequence: MSEEVTYADLQFQNSSEMEKIPEIGKFGEKAPPAPSHVWRPAALFLTLLCLLLLIGLGVLASMFHVTLKIEMKKMNKLQNISEELQRNISLQLMSNMNISNKIRNLSTTLQTIATKLCRELYSKEQEHKCKPCPRRWIWHKDSCYFLSDDVQTWQESKMACAAQNASLLKINNKNALEFIKSQSRSYDYWLGLSPEEDSTRGMRVDNIINSSAWVIRNAPDLNNMYCGYINRLYVQYYHCTYKKRMICEKMANPVQLGSTYFREA [Q5QGZ9]
- percentage of EdU-negative [1, 3]: 25.2 ± 1.6%
- percentage of EdU-negative ([1]; protein concentration 0.225 µM): 28.95 ± 0.13%
- percentage of EdU-negative [2, 3]: 4.07 ± 0.067%
- percentage of EdU-negative ([2]; protein concentration 0.225 µM): 4.99 ± 0.84%

Sequence: MSERKEGRGKGKGKKKERGSGKKPESAAGSQSPALPPRLKEMKSQESAAGSKLVLRCETSSEYSSLRFKWFKNGNELNRKNKPQNIKIQKKPGKSELRINKASLADSGEYMCKVISKLGNDSASANITIVESNEIITGMPASTEGAYVSSESPIRISVSTEGANTSSSTSTSTTGTSHLVKCAEKEKTFCVNGGECFMVKDLSNPSRYLCKCQPGFTGARCTENVPMKVQNQEKAEELYQKRVLTITGICIALLVVGIMCVVAYCKTKKQRKKLHDRLRQSLRSERNNMMNIANGPHHPNPPPENVQLVNQYVSKNVISSEHIVEREAETSFSTSHYTSTAHHSTTVTQTPSHSWSNGHTESILSESHSVIVMSSVENSRHSSPTGGPRGRLNGTGGPRECNSFLRHARETPDSYRDSPHSERYVSAMTTPARMSPVDFHTPSSPKSPPSEMSPPVSSMTVSMPSMAVSPFMEEERPLLLVTPPRLREKKFDHHPQQFSSFHHNPAHDSNSLPASPLRIVEDEEYETTQEYEPAQEPVKKLANSRRAKRTKPNGHIANRLEVDSNTSSQSSNSESETEDERVGEDTPFLGIQNPLAASLEATPAFRLADSRTNPAGRFSTQEEIQARLSSVIANQDPIAV
- percentage of EdU-negative [1, 4]: 23.8 ± 3.8%
- percentage of EdU-negative [1, 5]: 24.8 ± 0.83%
- percentage of EdU-negative [2, 4]: 4.23 ± 0.16%
- percentage of EdU-negative [2, 5]: 4.694 ± 0.041%

Sequence: MSEVPVARVWLVLLLLTVQVGVTAGAPWQCAPCSAEKLALCPPVSASCSEVTRSAGCGCCPMCALPLGAACGVATARCARGLSCRALPGEQQPLHALTRGQGACVQESDASAPHAAEAGSPESPESTEITEEELLDNFHLMAPSEEDHSILWDAISTYDGSKALHVTNIKKWKEPCRIELYRVVESLAKAQETSGEEISKFYLPNCNKNGFYHSRQCETSMDGEAGLCWCVYPWNGKRIPGSPEIRGDPNCQIYFNVQN
- percentage of EdU-negative [1, 6]: 24.4 ± 0.48%
- percentage of EdU-negative [1, 7]: 29.6 ± 4%
- percentage of EdU-negative [2, 6]: 5.41 ± 0.56%
- percentage of EdU-negative [2, 7]: 9.21 ± 1.1%

Sequence: MSFPCKFVASFLLIFNVSSKGAVSKEITNALETWGALGQDINLDIPSFQMSDDIDDIKWEKTSDKKKIAQFRKEKETFKEKDTYKLFKNGTLKIKHLKTDDQDIYKVSIYDTKGKNVLEKIFDLKIQERVSKPKISWTCINTTLTCEVMNGTDPELNLYQDGKHLKLSQRVITHKWTTSLSAKFKCTAGNKVSKESSVEPVSCPEKGLDIYLIIGICGGGSLLMVFVALLVFYITKRKKQRSRRNDEELETRAHRVATEERGRKPHQIPASTPQNPATSQHPPPPPGHRSQAPSHRPPPPGHRVQHQPQKRPPAPSGTQVHQQKGPPLPRPRVQPKPPHGAAENSLSPSSN
- percentage of EdU-negative [1, 3]: 24.6 ± 0.84%
- percentage of EdU-negative ([1]; protein concentration 0.225 µM): 26.8 ± 0.55%
- percentage of EdU-negative [2, 3]: 5.27 ± 1.3%
- percentage of EdU-negative ([2]; protein concentration 0.225 µM): 5.92 ± 0.1%

Sequence: MSGAPTAGAALMLCAATAVLLSAQGGPVQSKSPRFASWDEMNVLAHGLLQLGQGLREHAERTRSQLSALERRLSACGSACQGTEGSTDLPLAPESRVDPEVLHSLQTQLKAQNSRIQQLFHKVAQQQRHLEKQHLRIQHLQSQFGLLDHKHLDHEVAKPARRKRLPEMAQPVDPAHNVSRLHRLPRDCQELFQVGERQSGLFEIQPQGSPPFLVNCKMTSDGGWTVIQRRHDGSVDFNRPWEAYKAGFGDPHGEFWLGLEKVHSITGDRNSRLAVQLRDWDGNAELLQFSVHLGGEDTAYSLQLTAPVAGQLGATTVPPSGLSVPFSTWDQDHDLRRDKNCAKSLSGGWWFGTCSHSNLNGQYFRSIPQQRQKLKKGIFWKTWRGRYYPLQATTMLIQPMAAEAAS [Q9BY76]
- percentage of EdU-negative [1, 8]: 23.9 ± 1.8%
- percentage of EdU-negative [1, 9]: 27.4 ± 1.9%
- percentage of EdU-negative [2, 8]: 5.28 ± 0.74%
- percentage of EdU-negative [2, 9]: 6.14 ± 0.59%

Sequence: MSGGHQLQLAALWPWLLMATLQAGFGRTGLVLAAAVESERSAEQKAIIRVIPLKMDPTGKLNLTLEGVFAGVAEITPAEGKLMQSHPLYLCNASDDDNLEPGFISIVKLESPRRAPRPCLSLASKARMAGERGASAVLFDITEDRAAAEQLQQPLGLTWPVVLIWGNDAEKLMEFVYKNQKAHVRIELKEPPAWPDYDVWILMTVVGTIFVIILASVLRIRCRPRHSRPDPLQQRTAWAISQLATRRYQASCRQARGEWPDSGSSCSSAPVCAICLEEFSEGQELRVISCLHEFHRNCVDPWLHQHRTCPLCMFNITEGDSFSQSLGPSRSYQEPGRRLHLIRQHPGHAHYHLPAAYLLGPSRSAVARPPRPGPFLPSQEPGMGPRHHRFPRAAHPRAPGEQQRLAGAQHPYAQGWGLSHLQSTSQHPAACPVPLRRARPPDSSGSGESYCTERSGYLADGPASDSSSGPCHGSSSDSVVNCTDISLQGVHGSSSTFCSSLSSDFDPLVYCSPKGDPQRVDMQPSVTSRPRSLDSVVPTGETQVSSHVHYHRHRHHHYKKRFQWHGRKPGPETGVPQSRPPIPRTQPQPEPPSPDQQVTRSNSAAPSGRLSNPQCPRALPEPAPGPVDASSICPSTSSLFNLQKSSLSARHPQRKRRGGPSEPTPGSRPQDATVHPACQIFPHYTPSVAYPWSPEAHPLICGPPGLDKRLLPETPGPCYSNSQPVWLCLTPRQPLEPHPPGEGPSEWSSDTAEGRPCPYPHCQVLSAQPGSEEELEELCEQAV [Q68DV7]
- percentage of EdU-negative ([1]; protein concentration 0.032 µM): 24.9 ± 1%
- percentage of EdU-negative ([1]; protein concentration 0.32 µM): 23.5 ± 1.3%
- percentage of EdU-negative ([2]; protein concentration 0.032 µM): 4.69 ± 0.58%
- percentage of EdU-negative ([2]; protein concentration 0.32 µM): 4.96 ± 0.2%

Reference: the supplement of paper PMC11316812
